Test results: PMC7375805

Target: AP2 FLAP (full-length β2 subunit AP2 complex, i.e. AP2 lacking the α appendage and the α hinge) (UniProt P18484)
Assay: cryo-EM structure; cryo-electron tomography and subtomogram averaging of AP2 FLAP on liposomes with PtdIns(4,5)P2 and TGN38 YxxΦ lipopeptide, no clathrin, HKM2 buffer; ~9 Å

What does the source list for “AP2 FLAP (full-length β2 subunit AP2 complex, i.e. AP2 lacking the α appendage and the α hinge) (from UniProt P18484 1-621; P63010 1-937; P84092 1-435; P62743 1-142)”?
percent of AP2 dimerized: 20%; stoichiometry N: 2
